Source: US20170157245A1, “TREATMENT OF GASTRIC CANCER” (OncoMed Pharmaceutlcals, Inc., priority 2014, published 2017)

Experiments:
[1] = test system: xenograft tumor models; details: Hoey et al., 2009, U.S. Pat. No. 7,750,124; cited from earlier work
[2] = test system: OMP-STM1 gastric tumor xenografts; assay: Inhibition of OMP-STM1 gastric tumor growth in vivo; details: subcutaneous xenograft in NOD/SCID mice, 3 mg/kg weekly intraperitoneally for 4 weeks, given plus anti-mVEGF/anti-mDLL4 bispecific antibody, compared with control, anti-DLL4 and anti-VEGF antibodies
Method: FIG. 1. […] OMP-STM1 gastric tumor cells were injected subcutaneously into NOD/SCID mice. Mice were treated with control antibody (-[…]-), anti-hDLL4 antibody 21M18 (demcizumab) plus anti-mDLL4 antibody (-▪-), anti-VEGF antibody bevacizumab plus anti-mVEGF antibody (-⋄-), or anti-VEGF/anti-DLL4 bispecific antibody 219R45-MB-21M83 (305B83) plus anti-mDLL4/anti-mVEGF antibody (-▾-). Data is shown as tumor volume […] over days post-treatment. Antibodies were administered intraperitoneally at a dose of 3 mg/kg once a week. * indicates p<0.05 vs control antibody as assessed by two-way ANOVA.
Single cell suspensions of OMP-STM1 gastric tumor xenografts (50,000 cells) were injected subcutaneously into the flanks of 6-8 week old NOD/SCID mice. Tumors were allowed to grow for 34 days until they reached an average volume of 110 mm^3. The mice were randomized (n=8 per group) and treated with anti-hDLL4 antibody 21M18 (demcizumab) plus anti-mDLL4, anti-hVEGF antibody bevacizumab plus anti-mVEGF, anti-hVEGF/anti-hDLL4 bispecific antibody 219R45-MB-21R83 (305B83) plus an anti-mVEGF/anti-mDLL4 bispecific antibody, or control antibody. Antibodies were dosed at 3 mg/kg weekly by intraperitoneal injection for 4 weeks. Tumor growth was monitored and tumor volumes were measured with electronic calipers at the indicated time points. Data are expressed as mean±S.E.M.

Row | Molecule | frequency of cancer stem cells [1] | tumor growth inhibition [1] | inhibition of OMP-STM1 gastric tumor growth (tumor volume) ([2]; listed as 219R45-MB-21M83, 3 mg/kg) | inhibition of OMP-STM1 gastric tumor growth (tumor volume) ([2]; listed as bispecific anti-VEGF/anti-DLL4 antibody, 3 mg/kg)
1 | demcizumab: anti-DLL4 antibody, demcizumab (also known as OMP-21M18); heavy chain variable region SEQ ID NO:9 (antibody, chains of the INN, looked up, V domains shown) VH: QVQLVQSGAEVKKPGASVKISCKASGYSFTAYYIHWVKQAPGQGLEWIGYISSYNGATNYNQKFKGRVTFTTDTSTSTAYMELRSLRSDDTAVYYCARDYDYDVGMDYWGQGTLVTVSS VL: DIVMTQSPDSLAVSLGERATISCRASESVDNYGISFMKWFQQKPGQPPKLLIYAASNQGSGVPDRFSGSGSGTDFTLTISSLQAEDVAVYYCQQSKEVPWTFGGGTKVEIK | reduce the frequency of cancer stem cells | inhibit tumor growth | – | –
2 | 219R45-MB-21R83: anti-hVEGF/anti-hDLL4 bispecific antibody; heavy chains SEQ ID NO:7 and SEQ ID NO:62, two light chains SEQ ID NO:8 (antibody, chains of the INN, looked up, V domains shown) VH: QVQLVQSGAEVKKPGASVKISCKASGYSFTAYYIHWVKQAPGQGLEWIGYISNYNRATNYNQKFKGRVTFTTDTSTSTAYMELRSLRSDDTAVYYCARDYDYDVGMDYWGQGTLVTVSS VL: DIVMTQSPDSLAVSLGERATISCRASESVDNYGISFMKWFQQKPGQPPKLLIYAASNQGSGVPDRFSGSGSGTDFTLTISSLQAEDVAVYYCQQSKEVPWTFGGGTKVEIK VH2: QVQLVQSGAEVKKPGASVKVSCKASGYTFTNYWMHWVRQAPGQGLEWMGDINPSNGRTSYKEKFKRRVTLSVDKSSSTAYMELSSLRSEDTAVYFCTIHYDDKYYPLMDYWGQGTLVTVSS VL2: DIVMTQSPDSLAVSLGERATISCRASESVDNYGISFMKWFQQKPGQPPKLLIYAASNQGSGVPDRFSGSGSGTDFTLTISSLQAEDVAVYYCQQSKEVPWTFGGGTKVEIK | – | – | Inhibition of gastric tumor growth in vivo | greater inhibition of OMP-STM1 gastric tumor growth than either anti-DLL4 antibodies alone or anti-VEGF antibodies alone
